Assay results from the supplement of paper PMC10724198.
± gives the standard deviation of the averaged measurements.

Assays:
Saccharomyces cerevisiae [1] = test: protein stability index of tFT-peptide fusion (C-terminal peptide) (PSI (0-1 scale)); higher = more stable (slower turnover); details: genetic background: wild type; temperature: 30 C
Saccharomyces cerevisiae [2] = test: as above
Description: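 MPS profiling in S. cerevisiae of the tFT-X12 degron library: putative degron peptides plus stable controls, 12 aa, fused to the C-terminus of a sfGFP-mCherry timer. Cells are FACS-sorted into 8 mCherry/sfGFP bins and deep-sequenced. PSI runs from 0 (unstable) to 1 (stable). Backgrounds are wild type, das1Δ and doa10Δ at 30 °C, and wild type, das1Δ, cdc34-1 and cdc53-1 at 37 °C; 2-3 technical replicates each.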

[3] = genetic background: cdc34-1, temperature: 37 C
[4] = genetic background: cdc53-1, temperature: 37 C
[5] = genetic background: das1 deletion, temperature: 30 C
[6] = genetic background: das1 deletion, temperature: 37 C
[7] = genetic background: doa10 deletion, temperature: 30 C
[8] = genetic background: wild type, temperature: 30 C
[9] = genetic background: wild type, temperature: 37 C
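Also: PSI is a weighted mean of sequencing reads over stability bins, variants kept only with over 10 reads, mCherry proximal and sfGFP distal, peptide attached via GGGS linker.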

RCSLFAKQVVSL
protein stability index (Saccharomyces cerevisiae [1]): 0.453 ± 0.074
protein stability index (Saccharomyces cerevisiae [2]; [3]): 0.381 ± 0.032
protein stability index (Saccharomyces cerevisiae [2]; [4]): 0.442 ± 0.029
protein stability index (Saccharomyces cerevisiae [2]; [5]): 0.451 ± 0.012
protein stability index (Saccharomyces cerevisiae [2]; [6]): 0.405 ± 0.0067
protein stability index (Saccharomyces cerevisiae [2]; [7]): 0.437 ± 0.021
protein stability index (Saccharomyces cerevisiae [2]; [8]): 0.43 ± 0.0057
protein stability index (Saccharomyces cerevisiae [2]; [9]): 0.37093 ± 0.00035

RERRISRIPCLS
protein stability index (Saccharomyces cerevisiae [1]): 0.276 ± 0.057
protein stability index (Saccharomyces cerevisiae [2]; [3]): 0.594 ± 0.058
protein stability index (Saccharomyces cerevisiae [2]; [4]): 0.678 ± 0.01
protein stability index (Saccharomyces cerevisiae [2]; [5]): 0.526 ± 0.018
protein stability index (Saccharomyces cerevisiae [2]; [6]): 0.6867 ± 0.0014
protein stability index (Saccharomyces cerevisiae [2]; [7]): 0.174 ± 0.0033
protein stability index (Saccharomyces cerevisiae [2]; [8]): 0.185 ± 0.035
protein stability index (Saccharomyces cerevisiae [2]; [9]): 0.362 ± 0.028

RFHFAAPPHRPS
protein stability index (Saccharomyces cerevisiae [1]): 0.879 ± 0.01
protein stability index (Saccharomyces cerevisiae [2]; [3]): 0.703 ± 0.024
protein stability index (Saccharomyces cerevisiae [2]; [4]): 0.744 ± 0.0012
protein stability index (Saccharomyces cerevisiae [2]; [5]): 0.679 ± 0.027
protein stability index (Saccharomyces cerevisiae [2]; [6]): 0.748 ± 0.0096
protein stability index (Saccharomyces cerevisiae [2]; [7]): 0.694 ± 0.062
protein stability index (Saccharomyces cerevisiae [2]; [8]): 0.668 ± 0.034
protein stability index (Saccharomyces cerevisiae [2]; [9]): 0.7583 ± 0.0022

RFIYYCVDVFFS
protein stability index (Saccharomyces cerevisiae [1]): 0.176 ± 0.033
protein stability index (Saccharomyces cerevisiae [2]; [3]): 0.0337 ± 0.01
protein stability index (Saccharomyces cerevisiae [2]; [4]): 0.147 ± 0.025
protein stability index (Saccharomyces cerevisiae [2]; [5]): 0.123 ± 0.049
protein stability index (Saccharomyces cerevisiae [2]; [6]): 0.215 ± 0.021
protein stability index (Saccharomyces cerevisiae [2]; [7]): 0.0847 ± 0.031
protein stability index (Saccharomyces cerevisiae [2]; [8]): 0.1 ± 0.034
protein stability index (Saccharomyces cerevisiae [2]; [9]): 0.19 ± 0.037

RFLACSIRYLVY
protein stability index (Saccharomyces cerevisiae [1]): 0.332 ± 0.025
protein stability index (Saccharomyces cerevisiae [2]; [3]): 0.294 ± 0.012
protein stability index (Saccharomyces cerevisiae [2]; [4]): 0.425 ± 0.037
protein stability index (Saccharomyces cerevisiae [2]; [5]): 0.286 ± 0.025
protein stability index (Saccharomyces cerevisiae [2]; [6]): 0.41 ± 0.008
protein stability index (Saccharomyces cerevisiae [2]; [7]): 0.227 ± 0.0073
protein stability index (Saccharomyces cerevisiae [2]; [8]): 0.277 ± 0.018
protein stability index (Saccharomyces cerevisiae [2]; [9]): 0.4 ± 0.027

RFRFRRTCLYAT
protein stability index (Saccharomyces cerevisiae [1]): 0.197 ± 0.0089
protein stability index (Saccharomyces cerevisiae [2]; [3]): 0.5745 ± 0.0034
protein stability index (Saccharomyces cerevisiae [2]; [4]): 0.588 ± 0.077
protein stability index (Saccharomyces cerevisiae [2]; [5]): 0.501 ± 0.028
protein stability index (Saccharomyces cerevisiae [2]; [6]): 0.655 ± 0.013
protein stability index (Saccharomyces cerevisiae [2]; [7]): 0.0931 ± 0.039
protein stability index (Saccharomyces cerevisiae [2]; [8]): 0.14 ± 0.0057
protein stability index (Saccharomyces cerevisiae [2]; [9]): 0.217 ± 0.033

RGAVRVAWYPVL
protein stability index (Saccharomyces cerevisiae [1]): 0.508 ± 0.095
protein stability index (Saccharomyces cerevisiae [2]; [3]): 0.699 ± 0.00098
protein stability index (Saccharomyces cerevisiae [2]; [4]): 0.737 ± 0.01
protein stability index (Saccharomyces cerevisiae [2]; [5]): 0.64 ± 0.011
protein stability index (Saccharomyces cerevisiae [2]; [6]): 0.7511 ± 0.0011
protein stability index (Saccharomyces cerevisiae [2]; [7]): 0.492 ± 0.019
protein stability index (Saccharomyces cerevisiae [2]; [8]): 0.517 ± 0.0095
protein stability index (Saccharomyces cerevisiae [2]; [9]): 0.684 ± 0.011

RGDCFLVLCVWR
protein stability index (Saccharomyces cerevisiae [1]): 0.485 ± 0.0086
protein stability index (Saccharomyces cerevisiae [2]; [3]): 0.499 ± 0.022
protein stability index (Saccharomyces cerevisiae [2]; [4]): 0.535 ± 0.015
protein stability index (Saccharomyces cerevisiae [2]; [5]): 0.366 ± 0.032
protein stability index (Saccharomyces cerevisiae [2]; [6]): 0.563 ± 0.017
protein stability index (Saccharomyces cerevisiae [2]; [7]): 0.348 ± 0.0047
protein stability index (Saccharomyces cerevisiae [2]; [8]): 0.362 ± 0.026
protein stability index (Saccharomyces cerevisiae [2]; [9]): 0.541 ± 0.0062

RGGPPPCPLLAA
protein stability index (Saccharomyces cerevisiae [1]): 0.51 ± 0.034
protein stability index (Saccharomyces cerevisiae [2]; [3]): 0.68 ± 0.036
protein stability index (Saccharomyces cerevisiae [2]; [4]): 0.698 ± 0.032
protein stability index (Saccharomyces cerevisiae [2]; [5]): 0.585 ± 0.012
protein stability index (Saccharomyces cerevisiae [2]; [6]): 0.688 ± 0.0092
protein stability index (Saccharomyces cerevisiae [2]; [7]): 0.571 ± 0.035
protein stability index (Saccharomyces cerevisiae [2]; [8]): 0.584 ± 0.011
protein stability index (Saccharomyces cerevisiae [2]; [9]): 0.664 ± 0.013

RGGWVVVLGCVG
protein stability index (Saccharomyces cerevisiae [1]): 0.501 ± 0.016
protein stability index (Saccharomyces cerevisiae [2]; [3]): 0.634 ± 0.034
protein stability index (Saccharomyces cerevisiae [2]; [4]): 0.6292 ± 0.0044
protein stability index (Saccharomyces cerevisiae [2]; [5]): 0.482 ± 0.029
protein stability index (Saccharomyces cerevisiae [2]; [6]): 0.6417 ± 0.0043
protein stability index (Saccharomyces cerevisiae [2]; [7]): 0.468 ± 0.021
protein stability index (Saccharomyces cerevisiae [2]; [8]): 0.486 ± 0.018
protein stability index (Saccharomyces cerevisiae [2]; [9]): 0.635 ± 0.036
